The Kd is the constant that tells how readily two partners part at equilibrium. In general, EC50 refers to the concentration needed to bring the measured effect to its halfway point. One may read the koff as the rate constant with which the complex falls apart. By kon is commonly meant the second-order rate constant of association. What is called IC50 is the concentration that gives 50% inhibition.

Experimental findings from US20240343815A1 are described below.

Like-named read-outs stand apart in the source and are kept apart here.

The target in assay [1] is recombinant human IL4Rα-his protein (human) (UniProt P24394). Put plainly: SPR Biacore, mAb captured, IL4Rα-his analyte. On the technique in general: Surface plasmon resonance follows binding to a sensor surface in real time, without labels.
Assay [2] deals with human IL4Rα on HEK293T-IL4Rα-STAT6-STAT6LUC-LB2 cells (human) (UniProt P24394). Put plainly: cell-based or functional assay.
Assay [3] deals with cynomolgus monkey IL4Rα-his protein (cynomolgus monkey). Put plainly: indirect ELISA, cynomolgus IL4Rα-his coated. In general terms: In an ELISA, binding on a coated surface is turned into a signal by an enzyme label.
Chain of cynomolgus monkey IL4Rα-his protein (cynomolgus monkey) (chain, as listed by the source): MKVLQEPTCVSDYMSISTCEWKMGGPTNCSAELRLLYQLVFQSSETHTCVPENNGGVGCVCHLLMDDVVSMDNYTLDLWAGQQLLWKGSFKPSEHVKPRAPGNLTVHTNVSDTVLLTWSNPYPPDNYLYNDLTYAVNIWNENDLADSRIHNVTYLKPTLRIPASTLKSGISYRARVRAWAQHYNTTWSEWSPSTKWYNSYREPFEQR
The target in assay [4] is marmoset monkey IL4Rα-his protein (marmoset monkey). Put plainly: indirect ELISA, marmoset IL4Rα-his coated.
Chain of marmoset monkey IL4Rα-his protein (marmoset monkey) (chain, as listed by the source limits assumed): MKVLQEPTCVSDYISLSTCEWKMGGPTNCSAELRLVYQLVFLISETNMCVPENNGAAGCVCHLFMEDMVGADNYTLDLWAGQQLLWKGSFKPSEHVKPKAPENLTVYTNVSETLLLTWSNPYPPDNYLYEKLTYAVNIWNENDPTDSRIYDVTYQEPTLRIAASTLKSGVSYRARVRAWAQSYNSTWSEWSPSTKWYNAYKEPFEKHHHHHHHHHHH
The target in assay [5] is recombinant human IL4Rα-his protein (human) (UniProt P24394). Put plainly: capture ELISA, mAb captured by anti-human IgG, biotinylated IL4Rα-his.
The target is the same in assay [6]. Nature of the assay: SPR Biacore, mAb captured, IL4Rα-his analyte. The source holds these as a separate data set.
Assay [7] shares this target. Nature of the assay: benchmark blocking ELISA, competitor benchmark coated (self-competition), biotinylated IL4Rα-his.
For assay [8] the target is unchanged. Put plainly: SPR Biacore, mAb captured, IL4Rα-his analyte. This is another data set of the same source.
The target is the same in assay [9]. Nature of the assay: IL4-IL4Rα blocking ELISA, IL4Rα-his coated, biotinylated IL4.
The target in assay [10] is human IL4Rα on HEK293T-IL4Rα-STAT6-STAT6LUC-LB2 cells (human) (UniProt P24394). Nature of the assay: cell-based or functional assay. This is another data set of the same source.
In assay [11] the target is human IL4Rα expressed on the surface of 293F-IL4Rα cells (human) (UniProt P24394). Put plainly: flow cytometry on 293F-IL4Rα cells. (Flow cytometry measures light scatter and fluorescence of single cells or particles in a stream.)
For assay [12] the target is unchanged. Nature of the assay: flow cytometry on 293F-IL4Rα cells. This is another data set of the same source.
The target is the same in assay [13]. Nature of the assay: cell-based ligand blocking FACS, 293F-IL4Rα cells, biotinylated IL4.
The target of assay [14] is recombinant human IL4Rα-his protein (human) (UniProt P24394). Nature of the assay: IL4-IL4Rα blocking ELISA, IL4Rα-his coated, biotinylated IL4. This is another data set of the same source.

B1: anti-IL4Rα antibody benchmark (dupilumab) (antibody, INN chains, looked up, V domains shown)
VH: EVQLVESGGGLEQPGGSLRLSCAGSGFTFRDYAMTWVRQAPGKGLEWVSSISGSGGNTYYADSVKGRFTISRDNSKNTLYLQMNSLRAEDTAVYYCAKDRLSITIRPRYYGLDVWGQGTTVTVSS
VL: DIVMTQSPLSLPVTPGEPASISCRSSQSLLYSIGYNYLDWYLQKSGQSPQLLIYLGSNRASGVPDRFSGSGSGTDFTLKISRVEAEDVGFYYCMQALQTPYTFGQGTKLEIKR
B1: the values for the Kd in assay [1], in [6] and in assay [8] were 0.746 nM, 0.188 nM and 0.466 nM, respectively. The figures for the Inhibition of IL4-induced STAT6 phosphorylation (IC50, nM) in assay [2] and in assay [10] were 0.7 nM and 0.37 nM, respectively. Moreover, the results for the Inhibition of IL13-induced STAT6 phosphorylation (IC50, nM) in assay [2] and in assay [10] were 0.84 nM and 0.48 nM, respectively. The EC50 was 0.67 nM in assay [3]; 1.72 nM in [4]; 0.05 nM in [5]; 0.4 nM in assay [11]; 0.46 nM in assay [12]. In assay [6], the Dissociation (%) is -2.64%. Moreover, in assay [6], the End (RU) amounted to 70 RU. Besides, the Start (RU) in [6] was found to be 71.9 RU. The koff in assay [6] worked out at 6.25e-05 s⁻¹. Further, the kon in assay [6] was determined as 333000 M⁻¹ s⁻¹. In addition, the IC50 was 0.19 nM in assay [7], 1.74 nM in [9], 0.42 nM in [13] and 2.06 nM in assay [14].
